Measurements from patent US7205387B2, “Recombinant polypeptide useful for neurotrophin receptor mediated gene delivery and as neurotrophin agonist” (Agency for Science, Technology and Research, priority 2003, dated 2007).
Bridge positions count the residues as written; N and C are the ends. Ends that are not written are not given here.

Legend:
[1] = tested on: dorsal root ganglia (DRG); assay: Gene delivery in vivo, intrathecal injection, dorsal root ganglia; design: species or system rat; details: 3 days
From the text: In vivo gene delivery was studied by intrathecal injections of adult Wistar rats (8 weeks old, 180–200 g). The rats were anesthetized by intraperitoneal injection of sodium pentobarbital. After the skin around L4–L5 was exposed, the gene delivery complex was slowly injected into the subarachnoid space using a syringe. A slight tail movement accompanied correct placement of the needle. After injection, the syringe was left in place for five minutes to limit diffusion caused by backflow pressure. Multiple injections were sometimes required to deliver the full volume of the complex. After injection, the skin was closed with surgical clips and the animals were kept warm until they recovered. […] The lumbar segment of the spinal cord and the lumbar dorsal root ganglia were excised. The tissues were homogenized in 100–400 μl of Reporter Lysis Buffer (Promega) depending on size and subjected to three freeze-thaw cycles. The lysates were centrifuged at 14000 g for 5 min at 4° C. The supernatant was tested for luciferase activity using the Luciferase Assay System (Promega) in a single-tube luminometer (Berthold Lumat LB 9507). The readings were normalized by the total protein content of the lysates, as measured by the DC Protein assay (Bio-Rad).

[2] = tested on: Erk1 and Erk2; assay: Phospho-Erk1/Erk2 (p44/p42 MAPK) immunoblot in PC12 cells; type: cell-based, rat
Experimental: (§1) Immunoblotting experiments were conducted to test whether the chimeric polypeptides could, like NGF, induce autophosphorylation of TrkA and activation of its signal transduction pathways. PC12 cells were seeded in 6-well plates at a density of 2×10^6 cells/well and cultured in RPMI 1640 containing 0.5% FBS and 0.25% horse serum for 2 days. The low serum concentrations were necessary to reduce the basal levels of phosphorylation. The medium was refreshed two hours before beginning treatment. The cells were incubated with the polypeptides or NGF in serum-free medium for 15–20 min. The cells were then washed in PBS, lysed, and sonicated. The cell lysates were resolved by SDS-PAGE and transferred to a nitrocellulose membrane for immunoblotting. The primary antibodies used include Phospho-TrkA (Tyr490) antibody, Phospho-p44/p42 MAPK (Thr202/Tyr204) monoclonal antibody, and Phospho-Akt (Ser473) monoclonal antibody, all obtained from Cell Signaling Technology (Beverly, Mass., USA). Colorimetric detection was performed by standard techniques after using horse-radish peroxidase-conjugated secondary antibodies. In some experiments, TrkA tyrosine kinase inhibitors K-252a or AG879 (both from Calbiochem, La Jolla, Calif., USA) were used. In these cases, PC12 cells were incubated with 100 nM K-252a or 10 μM AG879 before addition of polypeptides or NGF.

[3] = tested on: primary glial cells; assay: Gene delivery to primary cultures of glial cells; type: cell-based, rat
Experimental: Primary cultures of glial cells were established from the cortices of 20-day old embryonic Wistar rats. Individual cells were collected as described above. The cells were plated at a density of 4×10^5 viable cells/cm^2 on poly-L-lysine/laminin coated dishes and grown to confluence for 7 days in DMEM/F12 medium supplemented with 10% FCS. The day before transfection, the cells were detached and plated into coated microplates at a density of 2.5×10^4 cells per well. Gene delivery complexes were also tested on primary cultures of cortical neurons and glial cells in a similar fashion. […] Four hours later, an equal volume of DMEM-F12/N2 was added. One to two days after transfection, the cell culture medium was removed and the cells were rinsed in phosphate-buffered saline (PBS). Enough Reporter Lysis Buffer (Promega, Wisconsin, Md., USA) to cover the bottom surface was added to each well (50 μl/well for 48-well plates). After one freeze-thaw cycle, the lysates were tested for luciferase activity using the Luciferase Assay System (Promega) and a single-tube luminometer (Berthold Lumat L B 9507, Bad Wildbad, Germany). The total protein concentration of each lysate was determined using the DC Protein assay (Bio-Rad, Hercules, Calif., USA). The results were expressed in relative light units (RLU) per milligram of total protein.

[4] = tested on: primary cortical neurons; assay: Gene delivery to primary cultures of cortical neurons; type: cell-based, rat
Experimental: Primary cultures of neurons were established from the cortices of embryonic Wistar rats at gestational day 20. Cortices freed of meninges were dissected and individual cells were dispersed mechanically by trituration of minced tissue in 3 ml DMEM medium supplemented with 2% FBS. The suspension was allowed to settle in a centrifuge tube. The cells in the supernatant were collected by centrifugation and resuspended gently in DMEM with 10% FBS. Viability of the cells was assessed prior to plating using trypan blue. Cells were plated onto microplates pre-coated with poly-L-lysine/laminin at a density of 7.5×10^5 viable cells/cm^2. After a two-hour incubation period to allow neurons to attach, the medium and unattached cells were removed and replaced by serum-free DMEM/F12 medium with 1% N2 supplement (Invitrogen, Carlsbad, Calif., USA). The cell were then incubated at 37° C. in 5% CO2 in a humidified incubator. After 2–5 days of culture, the neuron cells were used for transfection experiments. Gene delivery complexes were also tested on primary cultures of cortical neurons and glial cells in a similar fashion. […] Four hours later, an equal volume of DMEM-F12/N2 was added. One to two days after transfection, the cell culture medium was removed and the cells were rinsed in phosphate-buffered saline (PBS). Enough Reporter Lysis Buffer (Promega, Wisconsin, Md., USA) to cover the bottom surface was added to each well (50 μl/well for 48-well plates). After one freeze-thaw cycle, the lysates were tested for luciferase activity using the Luciferase Assay System (Promega) and a single-tube luminometer (Berthold Lumat L B 9507, Bad Wildbad, Germany). The total protein concentration of each lysate was determined using the DC Protein assay (Bio-Rad, Hercules, Calif., USA). The results were expressed in relative light units (RLU) per milligram of total protein.

[5] = target: T1, TrkA (Rattus norvegicus, UniProt P35739); assay: Phospho-TrkA immunoblot in PC12 cells; type: cell-based
T1 construct: endogenous in cells; host or cells: PC12 (rat pheochromocytoma, ATCC)
Experimental: as §1

[6] = peptide/DNA 0.75 nmol/μg (N/P ratio of 2.5), chloroquine
[7] = 0.25 μg/well pCAGluc, PEI600, 24 h

T1 sequence (P35739 33-799): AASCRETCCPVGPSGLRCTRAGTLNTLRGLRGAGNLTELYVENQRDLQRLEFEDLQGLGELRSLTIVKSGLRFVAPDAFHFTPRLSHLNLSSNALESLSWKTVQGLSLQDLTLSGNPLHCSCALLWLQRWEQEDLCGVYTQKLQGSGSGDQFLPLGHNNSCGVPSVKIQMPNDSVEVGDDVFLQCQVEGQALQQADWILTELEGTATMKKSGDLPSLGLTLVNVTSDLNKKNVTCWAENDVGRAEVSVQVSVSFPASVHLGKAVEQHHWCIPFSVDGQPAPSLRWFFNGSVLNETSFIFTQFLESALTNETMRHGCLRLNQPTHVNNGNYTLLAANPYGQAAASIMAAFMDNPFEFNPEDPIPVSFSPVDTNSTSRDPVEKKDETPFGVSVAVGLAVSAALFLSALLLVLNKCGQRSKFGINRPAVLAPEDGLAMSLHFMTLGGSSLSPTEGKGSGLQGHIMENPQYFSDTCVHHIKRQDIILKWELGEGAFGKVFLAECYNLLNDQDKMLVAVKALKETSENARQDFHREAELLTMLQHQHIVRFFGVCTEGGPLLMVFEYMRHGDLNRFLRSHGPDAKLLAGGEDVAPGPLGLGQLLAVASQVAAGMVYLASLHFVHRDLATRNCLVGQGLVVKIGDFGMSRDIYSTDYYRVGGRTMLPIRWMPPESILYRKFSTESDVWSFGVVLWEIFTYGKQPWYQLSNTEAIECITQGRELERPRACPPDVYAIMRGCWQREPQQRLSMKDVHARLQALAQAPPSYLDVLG

| Molecule | luciferase gene expression in DRG relative to PEI600/pCAGluc/10K ([1]; 3 μg pCAGluc, PEI600 N/P 5, peptide N/P 5, intralumbar) | activation (phosphorylation) of Erk 1 and Erk 2 ([2]; 5 μM peptide, 20 min) | difference between transfection efficiencies of NL4-10K and 10K [3, 6] | gene transfer efficiency relative to the non-targeted control (10K) [4, 6] [fold] | activation (phosphorylation) of TrkA ([5]; 5 μM peptide, 20 min) | activity when complexed with DNA ([5]; NL4-10K/DNA complexes (N/P ratio of 5)) | transgene expression in lumbar DRG relative to PEI600/pCAGluc control ([1]; 4 μg pCAGluc, PEI600 N/P 5, 32 nmol peptide, intrathecal) | Erk1 and Erk2 activation compared with (SPKR)4 control ([2]; 1–8 μM, 15 min) | difference between SPKR4NL1-2 and (SPKR)4 triple complexes [3, 7] | effectiveness of triple complexes relative to (SPKR)4 triple complexes [4, 7] | activation of TrkA (phospho-TrkA Western blot) ([5]; 8 μM, 20 min) |
| --- | --- | --- | --- | --- | --- | --- | --- | --- | --- | --- | --- |
| CTTTHTFVKALTMDGKQAAWRFIRIDTACKKKKKKKKKK (CTTTHTFVKALTMDGKQAAWRFIRIDTACKKKKKKKKKK; disulfide 1-29) [NL4-10K] | twice as high | induced activation | not significant | 22 | induced activation | retained its activity | – | – | – | – | – |
| SPKR4NL1-2: chimeric protein: (SPKR)4 DNA-binding domain, α-helical linker, targeting domain with loops 1 and 2 of NGF (aa 17–67), His10 tag (protein, SPKR4NL1-2) MGHHHHHHHHHHSSGHIEGRHMSPKRSPKRSPKRSPKRGGTYLSEDELKAAEAAFKRHNPTGSCSVSVWVGDKTTATDIKGKEVMVLGEVNINNSVFKQYFFETKCRDPNPVDSG | – | – | – | – | – | – | nine times | higher level of Erk1 and Erk2 activation | essentially no difference | nine times | activates TrkA |
